Measured values as given in the supplement of paper PMC10598134.
± gives the standard deviation.

Experiment: collision cross section of modified peptide (TIMS, N2, iRT-aligned); higher = larger / more extended gas-phase ion
Method in brief: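 On a timsTOF Pro/HT (dda-PASEF, nitrogen, ~2.4 mbar), synthetic peptide pools were analysed after a 120-min nanoflow C18 separation at 60 °C and identified in MaxQuant. Three reference ions served for 1/K0 calibration, with run-wise alignment to the median iRT peptide deviation. Collision cross section comes from the Mason-Schamp equation, using the most abundant feature per charge state averaged over 1–3 technical replicates.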

[1] = charge state: 2, modification: Succinyl
[2] = charge state: 3, modification: Succinyl
[3] = charge state: 3, modification: Trimethyl (K)
[4] = charge state: 2, modification: Acetyl (K)
[5] = charge state: 3, modification: Acetyl (K)
[6] = charge state: 2, modification: Butyryl
[7] = charge state: 3, modification: Butyryl
[8] = charge state: 2, modification: Crotonyl
[9] = charge state: 3, modification: Crotonyl
[10] = charge state: 3, modification: Dimethyl (K)
[11] = charge state: 2, modification: Formyl
[12] = charge state: 2, modification: Glutarylation
[13] = charge state: 3, modification: Glutarylation
[14] = charge state: 2, modification: GlyGly (K)
[15] = charge state: 3, modification: GlyGly (K)
[16] = charge state: 2, modification: Methyl (K)
[17] = charge state: 3, modification: Methyl (K)
[18] = charge state: 2, modification: hydroxyisobutyryl
[19] = charge state: 3, modification: hydroxyisobutyryl
[20] = charge state: 2, modification: HexNAc (ST)
[21] = charge state: 2, modification: Biotin
[22] = charge state: 3, modification: Biotin
[23] = charge state: 2, modification: Dimethyl (K)
[24] = charge state: 2, modification: Malonyl
[25] = charge state: 3, modification: Malonyl
[26] = charge state: 2, modification: Propionyl
[27] = charge state: 2, modification: Trimethyl (K)
[28] = charge state: 2, modification: Nitro (Y)
[29] = charge state: 3, modification: HexNAc (ST)

IVEKYGYTHLSAGELLR [_IVEK(Succinyl)YGYTHLSAGELLR_]
collision cross section [1]: 498.62 ± 0.45 Å² | collision cross section [2]: 565.13 ± 1.1 Å²

IVEKYGYTHLSAGELLR [_IVEK(Trimethyl (K))YGYTHLSAGELLR_]
collision cross section [3]: 554.1 ± 0.025 Å²

IVFSGNLFQHQEDSKK [_IVFSGNLFQHQEDSK(Acetyl (K))K_]
collision cross section [4]: 495.37 ± 4.2 Å² | collision cross section [5]: 536.07 ± 1.1 Å²

IVFSGNLFQHQEDSKK [_IVFSGNLFQHQEDSK(Butyryl)K_]
collision cross section [6]: 504.05 ± 1 Å² | collision cross section [7]: 542.63 ± 1.2 Å²

IVFSGNLFQHQEDSKK [_IVFSGNLFQHQEDSK(Crotonyl)K_]
collision cross section [8]: 503.03 ± 1.1 Å² | collision cross section [9]: 539.53 ± 1.2 Å²

IVFSGNLFQHQEDSKK [_IVFSGNLFQHQEDSK(Dimethyl (K))K_]
collision cross section [10]: 532.16 ± 0.77 Å²

IVFSGNLFQHQEDSKK [_IVFSGNLFQHQEDSK(Formyl)K_]
collision cross section [11]: 496.72 ± 1.3 Å² | collision cross section (charge state: 3, modification: Formyl): 530.13 ± 1.3 Å²

IVFSGNLFQHQEDSKK [_IVFSGNLFQHQEDSK(Gluratylation)K_]
collision cross section [12]: 499.16 ± 1.4 Å² | collision cross section [13]: 531.31 ± 9.1 Å²

IVFSGNLFQHQEDSKK [_IVFSGNLFQHQEDSK(GlyGly (K))K_]
collision cross section [14]: 491.77 Å² | collision cross section [15]: 544.77 ± 1.6 Å²

IVFSGNLFQHQEDSKK [_IVFSGNLFQHQEDSK(Methyl (K))K_]
collision cross section [16]: 490.37 Å² | collision cross section [17]: 529.21 ± 1.6 Å²

IVFSGNLFQHQEDSKK [_IVFSGNLFQHQEDSK(Succinyl)K_]
collision cross section [1]: 493.41 ± 1 Å² | collision cross section [2]: 524.55 ± 2 Å²

IVFSGNLFQHQEDSKK [_IVFSGNLFQHQEDSK(Trimethyl (K))K_]
collision cross section [3]: 536.81 ± 0.89 Å²

IVFSGNLFQHQEDSKK [_IVFSGNLFQHQEDSK(hydroxyisobutyryl)K_]
collision cross section [18]: 503.66 ± 0.71 Å² | collision cross section [19]: 534.25 ± 1.1 Å²

IVNVSLADLR [_IVNVS(HexNAc (ST))LADLR_]
collision cross section [20]: 388.29 ± 1.2 Å²

IVSGKDYNVTANSK [_IVSGK(Acetyl (K))DYNVTANSK_]
collision cross section [4]: 408.96 ± 0.54 Å²

IVSGKDYNVTANSK [_IVSGK(Biotin)DYNVTANSK_]
collision cross section [21]: 432.72 ± 2.7 Å² | collision cross section [22]: 508.73 Å²

IVSGKDYNVTANSK [_IVSGK(Butyryl)DYNVTANSK_]
collision cross section [6]: 419.09 ± 2.9 Å²

IVSGKDYNVTANSK [_IVSGK(Crotonyl)DYNVTANSK_]
collision cross section [8]: 415.26 ± 1.1 Å²

IVSGKDYNVTANSK [_IVSGK(Dimethyl (K))DYNVTANSK_]
collision cross section [23]: 404.57 ± 0.47 Å² | collision cross section [10]: 462.9 ± 1.6 Å²

IVSGKDYNVTANSK [_IVSGK(Formyl)DYNVTANSK_]
collision cross section [11]: 405.86 ± 0.56 Å²

IVSGKDYNVTANSK [_IVSGK(Gluratylation)DYNVTANSK_]
collision cross section [12]: 417.68 ± 1.5 Å² | collision cross section [13]: 473.57 ± 2.4 Å²

IVSGKDYNVTANSK [_IVSGK(GlyGly (K))DYNVTANSK_]
collision cross section [14]: 423.62 ± 2 Å² | collision cross section [15]: 476.53 ± 2.2 Å²

IVSGKDYNVTANSK [_IVSGK(Malonyl)DYNVTANSK_]
collision cross section [24]: 407.96 ± 0.037 Å² | collision cross section [25]: 465.84 ± 1.8 Å²

IVSGKDYNVTANSK [_IVSGK(Methyl (K))DYNVTANSK_]
collision cross section [16]: 411.95 ± 2 Å² | collision cross section [17]: 471.19 ± 3.6 Å²

IVSGKDYNVTANSK [_IVSGK(Propionyl)DYNVTANSK_]
collision cross section [26]: 411.4 ± 0.64 Å²

IVSGKDYNVTANSK [_IVSGK(Succinyl)DYNVTANSK_]
collision cross section [1]: 411.09 ± 0.54 Å²

IVSGKDYNVTANSK [_IVSGK(Trimethyl (K))DYNVTANSK_]
collision cross section [27]: 419.62 ± 1.6 Å² | collision cross section [3]: 475.29 ± 2.4 Å²

IVSGKDYNVTANSK [_IVSGK(hydroxyisobutyryl)DYNVTANSK_]
collision cross section [18]: 417.55 ± 0.55 Å² | collision cross section [19]: 466.6 ± 0.46 Å²

IYELAAGGTAVGTGLNTR [_IY(Nitro (Y))ELAAGGTAVGTGLNTR_]
collision cross section [28]: 447.13 ± 1.1 Å²

IYHPNVDK [_IY(Nitro (Y))HPNVDK_]
collision cross section [28]: 340.06 ± 0.72 Å² | collision cross section (charge state: 3, modification: Nitro (Y)): 427.49 ± 0.064 Å²

IYHPNVDK [_IY(Phospho (Y))HPNVDK_]
collision cross section (charge state: 2, modification: Phospho (Y)): 353.97 ± 0.065 Å² | collision cross section (charge state: 3, modification: Phospho (Y)): 437.48 Å²

KDYQPGITFIVVQK [_KDYQP(Hydroxyproline)GITFIVVQK_]
collision cross section (charge state: 3, modification: Hydroxyproline): 502.4 Å²

KFGVLSDNFK [_K(Acetyl (K))FGVLSDNFK_]
collision cross section [4]: 370.76 ± 0.46 Å²

KFGVLSDNFK [_K(Biotin)FGVLSDNFK_]
collision cross section [21]: 394.71 ± 3.8 Å²

KFGVLSDNFK [_K(Butyryl)FGVLSDNFK_]
collision cross section [6]: 377.44 ± 0.84 Å²

KFGVLSDNFK [_K(Crotonyl)FGVLSDNFK_]
collision cross section [8]: 376.47 ± 0.8 Å²

KFGVLSDNFK [_K(Dimethyl (K))FGVLSDNFK_]
collision cross section [23]: 367.27 ± 1.5 Å²

KFGVLSDNFK [_K(Formyl)FGVLSDNFK_]
collision cross section [11]: 368.1 ± 0.89 Å²

KFGVLSDNFK [_K(Gluratylation)FGVLSDNFK_]
collision cross section [12]: 380.33 ± 0.73 Å²

KFGVLSDNFK [_K(GlyGly (K))FGVLSDNFK_]
collision cross section [14]: 380.5 ± 0.25 Å² | collision cross section [15]: 435.06 ± 2 Å²

KFGVLSDNFK [_K(Malonyl)FGVLSDNFK_]
collision cross section [24]: 373.81 ± 0.63 Å²

KFGVLSDNFK [_K(Methyl (K))FGVLSDNFK_]
collision cross section [16]: 372.37 ± 0.47 Å² | collision cross section [17]: 448.39 ± 4.9 Å²

KFGVLSDNFK [_K(Propionyl)FGVLSDNFK_]
collision cross section [26]: 374.07 ± 0.33 Å²

KFGVLSDNFK [_K(Succinyl)FGVLSDNFK_]
collision cross section [1]: 376.58 ± 0.24 Å²

KFGVLSDNFK [_K(Trimethyl (K))FGVLSDNFK_]
collision cross section [27]: 372.9 ± 0.61 Å² | collision cross section [3]: 457.56 Å²

KFGVLSDNFK [_K(hydroxyisobutyryl)FGVLSDNFK_]
collision cross section [18]: 378.39 ± 0.91 Å²

KITESVAETAQTIK [_KITESVAETAQT(HexNAc (ST))IK_]
collision cross section [20]: 451.91 ± 0.56 Å² | collision cross section [29]: 504.11 ± 1.1 Å²

KSQAGASELGPFSDPR [_KSQAGASELGPFS(HexNAc (ST))DPR_]
collision cross section [29]: 503.83 ± 1.1 Å²

KVQFAPEK [_KVQFAP(Hydroxyproline)EK_]
collision cross section (charge state: 2, modification: Hydroxyproline): 331.99 ± 1.4 Å²

KVTLSVLSR [_KVT(HexNAc (ST))LSVLSR_]
collision cross section [20]: 375.11 ± 0.13 Å² | collision cross section [29]: 463.47 ± 1 Å²

KYEEIDNAPEER [_K(Acetyl (K))YEEIDNAPEER_]
collision cross section [4]: 408.98 ± 1.6 Å² | collision cross section [5]: 493.17 ± 8.3 Å²

KYEEIDNAPEER [_K(Biotin)YEEIDNAPEER_]
collision cross section [21]: 430.04 ± 3.1 Å² | collision cross section [22]: 521.46 ± 0.34 Å²

KYEEIDNAPEER [_K(Butyryl)YEEIDNAPEER_]
collision cross section [6]: 413.71 ± 1.1 Å² | collision cross section [7]: 492.73 ± 3.5 Å²

KYEEIDNAPEER [_K(Crotonyl)YEEIDNAPEER_]
collision cross section [8]: 413.83 ± 0.55 Å² | collision cross section [9]: 493.07 ± 1.6 Å²

KYEEIDNAPEER [_K(Dimethyl (K))YEEIDNAPEER_]
collision cross section [23]: 402.53 ± 1.1 Å² | collision cross section [10]: 484.37 ± 1.6 Å²

KYEEIDNAPEER [_K(Formyl)YEEIDNAPEER_]
collision cross section [11]: 405.5 ± 0.74 Å²

KYEEIDNAPEER [_K(Gluratylation)YEEIDNAPEER_]
collision cross section [12]: 417.33 ± 0.59 Å² | collision cross section [13]: 495.54 ± 1 Å²

KYEEIDNAPEER [_K(GlyGly (K))YEEIDNAPEER_]
collision cross section [14]: 416.44 ± 0.85 Å² | collision cross section [15]: 499.05 ± 3 Å²

KYEEIDNAPEER [_K(Malonyl)YEEIDNAPEER_]
collision cross section [24]: 410.49 ± 0.6 Å² | collision cross section [25]: 491.92 ± 5.7 Å²

KYEEIDNAPEER [_K(Methyl (K))YEEIDNAPEER_]
collision cross section [16]: 398.83 ± 1.1 Å² | collision cross section [17]: 466.31 ± 3.7 Å²

KYEEIDNAPEER [_K(Propionyl)YEEIDNAPEER_]
collision cross section [26]: 411.41 ± 0.64 Å² | collision cross section (charge state: 3, modification: Propionyl): 491.8 Å²

KYEEIDNAPEER [_K(Succinyl)YEEIDNAPEER_]
collision cross section [1]: 412.18 ± 0.54 Å² | collision cross section [2]: 490.15 Å²

KYEEIDNAPEER [_K(Trimethyl (K))YEEIDNAPEER_]
collision cross section [27]: 405.59 ± 0.61 Å² | collision cross section [3]: 490.14 ± 2.4 Å²

KYEEIDNAPEER [_K(hydroxyisobutyryl)YEEIDNAPEER_]
collision cross section [18]: 416.12 ± 0.31 Å² | collision cross section [19]: 497.05 ± 3.9 Å²

LAEEENKAK [_LAEEENK(Acetyl (K))AK_]
collision cross section [4]: 348.53 ± 3.9 Å²

LAEEENKAK [_LAEEENK(Biotin)AK_]
collision cross section [21]: 371.22 Å²

LAEEENKAK [_LAEEENK(Butyryl)AK_]
collision cross section [6]: 353.86 ± 0.84 Å²
